# Measurements taken from the supplement of paper PMC6757056.
# ± gives the standard deviation of the averaged measurements.
# B1: library; a variant is named by its letters at N, in order (parent)
# chain: GCUGUCACCGGUGCUUGGUACGUUAUAUUCAGCCGGUCUGAUGAGUCUNNNNNNAGACGAAACAGC
# Experiments:
# (6R,S)-folinic acid [1] = variants of: B1; assay: normalized RNA/DNA level without ligand (relative to sTRSVctl = 100) (log10 (% of sTRSVctl)); HEK293T overexpressing SLC46A1; higher = less ribozyme self-cleavage, higher mRNA level; conditions: without (6R,S)-folinic acid; ligand present: no
# In short: (§1)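 Library plasmids encoding reporter-linked ribozyme switches (mCherry, or eGFP for some folinic acid experiments) were transfected into HEK293T at 4 µg per 6-well well. Ligand, when used, was added 1 h before transfection. Total RNA was extracted with EDTA 72 h later, then reverse-transcribed, amplified, barcoded and sequenced. RNA level was RNA reads over DNA reads, divided by a spiked-in non-cleaving control (or the top 25 sequences), ×100, log10; only sequences with ≥100 DNA reads were kept.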
# (6R,S)-folinic acid [2] = variants of: B1; assay: normalized RNA/DNA level with ligand (relative to sTRSVctl = 100) (log10 (% of sTRSVctl)); HEK293T overexpressing SLC46A1; ligand concentration (+) RNA-Seq: 6 mM; higher = less ribozyme self-cleavage, higher mRNA level; conditions: with (6R,S)-folinic acid; ligand present: yes
# In short: as §1
Variant,"normalized RNA/DNA level without ligand (log10) ((6R,S)-folinic acid [1])","normalized RNA/DNA level with ligand (log10) ((6R,S)-folinic acid [2])"
ACUCUU,2.0142 ± 0.0018,2.01 ± 0.046
ACUCUC,2.086 ± 0.0057,2.06 ± 0.024
ACUCUG,1.925 ± 0.018,2 ± 0.025
ACUCUA,2.005 ± 0.0056,2.01 ± 0.06
GCUAUG,1.99 ± 0.022,2.02 ± 0.035
GCUAUU,2.054 ± 0.013,2.04 ± 0.041
GCUAUC,2.083 ± 0.0023,2.013 ± 0.019
UCUCUU,2.06 ± 0.034,2.06 ± 0.059
UCUCUC,2.076 ± 0.015,2.04 ± 0.035
UCUCUG,1.89 ± 0.011,1.96 ± 0.027
UCUCUA,1.997 ± 0.0062,2.01 ± 0.04
UCUAGC,2.03 ± 0.024,2.02 ± 0.051
UCUAGA,2.05 ± 0.024,2.043 ± 0.0037
UCUAGG,1.982 ± 0.015,2.05 ± 0.026
UCUAGU,1.984 ± 0.0028,2.04 ± 0.032
ACGUGC,2.026 ± 0.0053,2.02 ± 0.055
ACGUGG,1.954 ± 0.0043,2.05 ± 0.025
ACGUGU,2.06 ± 0.028,2.06 ± 0.024
UCUUCA,2.028 ± 0.0079,2.04 ± 0.046
UCUUCU,2.064 ± 0.0051,2.095 ± 0.011
UCUUCG,1.91 ± 0.02,2.0469 ± 0.0016
UCUUCC,2.026 ± 0.018,2.043 ± 0.018
CCGUUG,1.99 ± 0.024,2.04 ± 0.044

Variant,"normalized RNA/DNA level without ligand (log10) ((6R,S)-folinic acid [1])","normalized RNA/DNA level with ligand (log10) ((6R,S)-folinic acid [2])"
CCGUUU,2.037 ± 0.0047,2.013 ± 0.02
CCGUUC,2.048 ± 0.0038,2.03 ± 0.071
CCGUUA,2.005 ± 0.0026,1.97 ± 0.055
ACUGCA,2.02 ± 0.013,2.05 ± 0.009
ACUGCU,2.0021 ± 0.002,2.008 ± 0.015
ACUGCC,2.06 ± 0.024,2.06 ± 0.039
ACUGCG,1.902 ± 0.011,2.013 ± 0.013
GCUUGC,2.052 ± 0.01,2.01 ± 0.022
GCUUGG,1.932 ± 0.015,2.02 ± 0.028
GCUUGA,1.999 ± 0.0031,2.024 ± 0.018
GCUUGU,2.004 ± 0.017,2.04 ± 0.058
ACUCAG,1.967 ± 0.0061,1.98 ± 0.036
ACUCAC,2.058 ± 0.007,2.045 ± 0.0072
CCUGUC,2.022 ± 0.0031,2.01 ± 0.041
CCUGUA,2.018 ± 0.012,2.04 ± 0.022
CCUGUU,2.02 ± 0.021,2.015 ± 0.014
CCUGUG,2.0488 ± 0.00073,2.03 ± 0.038
UCUUGU,1.976 ± 0.014,2.02 ± 0.051
UCUUGA,1.987 ± 0.0069,2.025 ± 0.006
UCUCGC,2.1 ± 0.032,2.05 ± 0.028
UCUCGG,2.03 ± 0.034,2.042 ± 0.0089
ACUACC,2.03 ± 0.0033,2.01 ± 0.04
ACUACU,2.022 ± 0.02,2.041 ± 0.0021

Variant,"normalized RNA/DNA level without ligand (log10) ((6R,S)-folinic acid [1])","normalized RNA/DNA level with ligand (log10) ((6R,S)-folinic acid [2])"
ACUACA,1.99 ± 0.021,2.01 ± 0.021
ACUACG,1.938 ± 0.0043,2.006 ± 0.02
UCUGCG,1.826 ± 0.008,2.03 ± 0.034
UCUGCC,1.981 ± 0.0055,2.02 ± 0.025
UCUGCU,2.069 ± 0.0056,2.07 ± 0.0045
UCUGCA,1.9967 ± 0.0014,2.06 ± 0.022
ACUUCC,2.058 ± 0.009,2.0589 ± 0.002
ACUUCA,2.01 ± 0.03,2 ± 0.04
ACUUCG,1.968 ± 0.0047,2.02 ± 0.029
ACUUCU,2.031 ± 0.0021,1.99 ± 0.059
CCUCUU,2.033 ± 0.012,2.022 ± 0.0093
CCUCUG,2.035 ± 0.011,2 ± 0.04
CCUCUA,2.029 ± 0.0036,2.03 ± 0.031
CCUCUC,2.072 ± 0.018,2.04 ± 0.078
UCUUUC,2.017 ± 0.0074,1.996 ± 0.0066
UCUUUG,1.81 ± 0.031,1.952 ± 0.019
UCUUUA,2.001 ± 0.0056,2 ± 0.015
ACUGAC,2.002 ± 0.0086,1.999 ± 0.0088
ACUGAU,1.9488 ± 0.0011,2 ± 0.031
CCUGGG,2.012 ± 0.01,2.017 ± 0.0021
CCUGGC,2.051 ± 0.013,2.05 ± 0.045
CCUGGA,2.046 ± 0.0022,2.068 ± 0.0024
CCUGGU,2.044 ± 0.0037,2.088 ± 0.011

Variant,"normalized RNA/DNA level without ligand (log10) ((6R,S)-folinic acid [1])","normalized RNA/DNA level with ligand (log10) ((6R,S)-folinic acid [2])"
UCUGUC,2.056 ± 0.0093,2.07 ± 0.075
UCUGUA,1.961 ± 0.0025,2.04 ± 0.026
UCUGUG,1.773 ± 0.0022,2 ± 0.049
GCUGGC,1.964 ± 0.017,1.916 ± 0.0083
GCUGGG,1.979 ± 0.0048,2.01 ± 0.021
GCUGGA,2.06 ± 0.0022,2.07 ± 0.046
ACUUUG,1.94 ± 0.043,2.001 ± 0.015
ACUUUC,2.041 ± 0.0054,2.05 ± 0.038
ACUUUU,2.037 ± 0.012,2 ± 0.038
UCUCAA,1.96 ± 0.0096,1.98 ± 0.024
UCUCAU,2.032 ± 0.015,2.023 ± 0.011
UCUCAG,1.958 ± 0.012,1.98 ± 0.027
UCUCAC,2.098 ± 0.0045,2.04 ± 0.035
CCUCCG,2.07 ± 0.029,2.049 ± 0.011
CCUCCC,2.095 ± 0.016,2.0404 ± 0.0018
CCUCCU,2.06 ± 0.036,2.037 ± 0.0023
GCUAGG,1.951 ± 0.016,2.031 ± 0.0073
GCUAGU,1.98 ± 0.024,2.01 ± 0.046
GCUAGC,2.035 ± 0.017,2.016 ± 0.012
GCUAGA,2.002 ± 0.0075,2.042 ± 0.012
CCUUAC,2.02 ± 0.027,2.056 ± 0.014
CCUUAG,1.934 ± 0.015,1.96 ± 0.046
CCUUAA,2.01 ± 0.0061,2.003 ± 0.013

Variant,"normalized RNA/DNA level without ligand (log10) ((6R,S)-folinic acid [1])","normalized RNA/DNA level with ligand (log10) ((6R,S)-folinic acid [2])"
UCUGGU,1.9654 ± 0.0015,2.02 ± 0.032
UCUGGC,2.03 ± 0.022,2.0358 ± 0.00061
CCGUGU,2.039 ± 0.0037,2.048 ± 0.0091
CCGUGG,2.022 ± 0.02,2.06 ± 0.023
CGAAAU,1.942 ± 0.0046,1.967 ± 0.013
CGAAAC,1.985 ± 0.0043,1.99 ± 0.04
UCUCCC,2.07 ± 0.021,2.06 ± 0.05
UCUCCU,2.01 ± 0.028,2.02 ± 0.032
UCUCCA,2.017 ± 0.0042,2.023 ± 0.0081
UCUCCG,1.96 ± 0.065,2.022 ± 0.013
GCGUUC,2.017 ± 0.0029,2.034 ± 0.02
GCGUUA,2.003 ± 0.0039,2.02 ± 0.036
GCGUUG,2.009 ± 0.0022,2.05 ± 0.041
GCGUUU,2.037 ± 0.017,2.04 ± 0.022
CCUCAG,1.94 ± 0.024,1.96 ± 0.0042
CCUCAU,2.03 ± 0.025,2 ± 0.054
CCUCAA,2.0335 ± 0.00095,2 ± 0.059
CCUCAC,2.0541 ± 0.0006,2.027 ± 0.013
ACUAUG,1.9049 ± 0.00034,2.008 ± 0.016
ACUAUU,2.027 ± 0.0052,2.02 ± 0.043
ACUAUC,2.063 ± 0.0022,2.04 ± 0.038
ACUAUA,1.983 ± 0.012,2.013 ± 0.0097
GCUGAG,1.974 ± 0.013,2.04 ± 0.039
